Data from the DeepSol protein solubility set.

assay: soluble on expression in E. coli; label from the status in PepcDB or PDB records

Sequence | soluble on expression in E. coli
MASEHFDMWESRFSADGYLFGTAPNAFLASCHDLLPKQGRALAIADGEGRNGVFLAECGLSVLSVDFSPTAQAKAHKLAAERGVTIETRTADLLSWQWPGGFDVIAGIFFQFVEPEQRPQIFQQIRAALKPGALLLIEGYRPKQLAYKTGGPSRAENLYTRELLEQAFGDFDNLSIRERDSEIVEGAGHAGLSALIDLIGWKPKLEHHHHHH | not soluble
MGSDKIHHHHHHMIHIRPFQHQDADYRVMADVYNALAPDAPLSAIEWRIRDEIHNPNLPLCRWIGELDGRAGGYAEYYQPTWCADPTHLEMQIVVHPAVQGRGLGRALWQHLQMAWQPLRPHHIWLKVREDWQAGLMFAGRRQFHESRRVWVSRLDLATFDPQPFSGSIERVTAQQIELISFAALATADQGFWQQLYEFERQTTGDVPSPFPVTMPTYDQWIKLYQPDHGALWEGSFAAVHEGQIVGISTLETIDDSTDVEVGFTAVRRDYRGRGIALALKLCTIAYAGAQGLSGIRTDNDSTNLAMWHINERLGFRRGPVWIVLHRCEQNEEVT | not soluble
MSLKELIALKRKVGLPGVTFAAMADGIWVLQVLPGAGIEKTGLRKGHQIVGVGGKPLAGNKLEDLFKAIEANNITDTMSRGSSERMYSRMTRDTKTQGPVVVLNVKQSRQQEKPFLILCKKEMFRSKIIEIEEDEFEDEVLKAPLPVAVTFWGDSCEPCKEFVPVLEAESAKYAGKVKFVNINVDGNRKLADQLAVKEVPALMVYKGGSAVATATGKLPREKVAEMLQDAAGREGHHHHHH | soluble
MVRRLTSPRLEFEAAAIYEYPEHLHSFLNDLPTRPGVYLFHGESDTMPLYIGKSVNIRSRVLSHLRTPDEAAMLRQSRRISWICTAGEIGALLLEARLIKEQQPLFNKRLRRNRQLCALQLNEKRVDVVYAKEVDFSRAPNLFGLFANRRAALQALQSIADEQKLCYGLLGLEPLSRGRACFRSALKRCAGACCGKESHEEHALRLRQSLERLRVVCWPWQGAVALKEQHPEMTQYHIIQNWLWLGAVNSLEEATTLIRTPAGFDHDGYKILCKPLLSGNYEITELDPANDQRAS | not soluble
MGARGRMAASKGAVMSLLLDAYQKRDKLAMVSFRKNEAFVNLPVTSSIELAARMLKEMPVGGRTPFSAGLLKGYEIAQNYLRKEPGGRPLIILVTDGKANRAIGQGKPLDEVFTISEKISREERIRFLVVDTEEPGLVTFGLAKKIAGLLDAWYYRIDDLRADTLVSIVKTMMP | not soluble
MKRLMFIGPSQCGKTSLTQSLRGEALHYKKTQAIEWSPMAIDTPGEYLENRCLYSALLTSACEADVIALVLNADAQWSPFSPGFTAPMNRPTIGLVTKADLAEPQRISLVAEWLTQAGAQQIFITSALNNSGLDAVLDFLNSKEPLCLTKLEHHHHHH | soluble
MGSSHHHHHHGGTGENLYFQGGSGPSSVAYVLGTESCGKTDLVHQLEYLTLGLVRTVPTACTPTTGQEVTKLNICSPAGKGKVTVEVRELGGSLVNTWESFIESRKARDGGSGDTSFLLIYVVDGVAPHQLPLASTMFRYLTQGRHAPCAGWPTLITVQKCASVNAITAEEVRSFFLDEVEAPANVDVVEVDSWNGIGTGDVLKGIEAVFGGLQ | not soluble
MDICDISASQLATSPPPRTAIDFNSSIEESPVKRVKFSPELTKSFEETLSPTVTLVLRNNEEVIFDRYLLSFYSNYFRVLFSSKFRDSNSTTHRIRLISASDLHFLLTIPKAFEQGIKPNITLQKAIELLEPAAFLQMSIALDYISDIICKNLTHENIIKIFRLALLYHTTLAVRVWRSMVRKFQTLFATNVYLSLKENELIGLLTDKHLNLKSEDETTVVVNWIKHNSPLQSDRLTQFAQRNFSRRPQPDATKYEVIRTRQPMDAIVCFGGWASRGVAQKIEVCNTRSDRWQTCNFNYDIPNIHRAYHGIEVVEDKLIVYGGFDGIKQFQTTVLFDLSTKEWRRGANMNDKRCYVTSARVNDSYGRPLVFACGGMNGVSRLKTAEMYDYRADQWTEVANMTQMRSDGAVVTIDNKIVAIGGFDGRNIHQGGEVYDPVLDLWHPLSSNMRTRRTGCTAVSIMNQVCMIIGGFNGNRRLDSAEIYDMREGLWHPEPTLQTARSNFSACQMDTCYVYVAGGFDGQTTTKESERLDLRSKMWQALPDMAEAKSALRMVTLSDHPFLDELFDIPDDTGIVTSW | not soluble
MADLFDEFIEPGVKNEIMDVEEAPENPMEKLDSAKKRQAREDMTNLLANMHNDVGVGNFDEATSKRARVEEEEEVEEARMENIIVHTIRTDNENCTHEVAIPPNAEFAELRENSGTEPAKYYPFQLDAFQKQAILCIDNNQSVLVSAHTSAGKTVVATYAIAKCLREKQRVIYTSPIKALSNQKYRELEEEFKDVGLMTGDVTLNPDASCLVMTTEILRSMLYRGSEIMKEVGWVVYDEIHYMRDKERGVVWEETIILMSKNIKQAFLSATIPNARQFAQWVASIKQQPVNVVYTDYRPTPLQHWIYPVGGEGMYEVVNVKGEFREDKFRDAMSGLATAGDSAGSFNKRRTGGGTQGDSNVLKIIRSVASNDGLNCIVFSFSRKECESYAISLKDMDFNKDHEKGMVKSVYESAIAQLSPEDQKLPQILNILPLLRRGIGVHHSGLMPILKETIEILFGEGLVKVLFATETFSMGLNMPARTVVFTSARKFDGSDNRYITSGEYIQMAGRAGRRGKDDRGTVILMVDSAMSADDAKQIIKGATDPLNSQFRLTYNMVLNLMRVEGMAVSWIINNSFHQFQSYAKIPEIDKKCVQVERKIASFNFPWENEMRTLVDLQDQLEATRQRIIQIQREPKYIVGFLHAGRLFKVKSGDRDFKWGILNQFKKEQNPDDRNDQIYLCDMMIAINTEGRFDPTNPATLVPGFDLPKRRWIRVPMTIDRITAISAVRLKVPADIDKPDGQMRLDGMMAAATKRFGNQIPLLDPIQDMEIKTVEMKELIAREKSLEGRLETHSMTKRDNMKDLKKQFEQKQDAVKELNALKAERKSVQSTLHLEELNNRKRVLRRLGYLGNDDALVLKGSVACELSASDELILTEMLLKGIFNTLDVAQTAALLSCFVFQDKCAAPKLATELQTCLSELHEQARNVAKVSNECKMEVMEDKYVSSFNPGLMDVVYQWVNGATFSEIVKTTDVFEGSIIRTLRRLEEVLREMINAAKALANKELEQKFEDARKNLKRDIVFAASLYL | not soluble
MPLLDSFTVDHTRMNAPAVRVAKTMQTPKGDTITVFDLRFTMPNKDILSERGIHTLEHLYAGFMRNHLNGSQVEIIDISPMGCRTGFYMSLIGAPTEQQVAQAWLAAMQDVLKVESQEQIPELNEYQCGTAAMHSLEEAKAIAKNVIAAGISVNRNDELALPESMLNELKVH | not soluble
GSHMDINNKARIHWACRRGMRELDISIMPFFEHEYDSLSDDEKRIFIRLLECDDPDLFNWLMNHGKPADAELEMMVRLIQTRNRERGPVAI | soluble
MGSDKIHHHHHHMDKEEQYLLFALSTPMEVLYIGNEPSHTSPAMYTGIPAVDLSDSWGIDNREDLIQTIYRMTDDGHAADLAPFYIRWFTLSPRQWREFTAQFGEQGQIYARFVAETALCCGRGGIKAWDYVRMGFLCRMGVLNQWLTEEESLWLQSRIYARAYYFYDGWTQYFAAYSLGRLYWQAKGDTIQAYFAHLKYDASGARMFNELASTTESYYAQLPWRPLNEQPTCPETLKGVSDL | not soluble
MTLGELREEVWNALARYDLALHPTPPHGHHPNFLGARRAAERLLKTPEFQGARRVLAGMDAVLKPLREEALRQGKELLLPHPDRPGEFLLLRDVDPRKLKRVREAYRFGVRVALEEATPDLVLIGAVAVDEEGGWVGKGYGFPQSWLRVEAPFATLAHPVMVYPRLPVPPERRVDLIATPQRLLRLG | soluble
MADAEVIILPKKHKKKKERKSLPEEDVAEIQHAEEFLIKPESKVAKLDTSQWPLLLKNFDKLNVRTTHYTPLACGSNPLKREIGDYIRTGFINLDKPSNPSSHEVVAWIRRILRVEKTGHSGTLDPKVTGCLIVCIERATRLVKSQQSAGKEYVGIVRLHNAIEGGTQLSRALETLTGALFQRPPLIAAVKRQLRVRTIYESKMIEYDPERRLGIFWVSCEAGTYIRTLCVHLGLLLGVGGQMQELRRVRSGVMSEKDHMVTMHDVLDAQWLYDNHKDESYLRRVVYPLEKLLTSHKRLVMKDSAVNAICYGAKIMLPGVLRYEDGIEVNQEIVVITTKGEAICMAIALMTTAVISTCDHGIVAKIKRVIMERDTYPRKWGLGPKASQKKLMIKQGLLDKHGKPTDSTPATWKQEYVDYSESAKKEVVAEVVKAPQVVAEAAKTAKRKRESESESDETPPAAPQLIKKEKKKSKKDKKAKAGLESGAEPGDGDSDTTKKKKKKKKAKEVELVSE | soluble
MGSIEEVLLEERLIGYLDPGAEKVLARINRPSKIVSTSSCTGRITLIEGEAHWLRNGARVAYKTHHPISRSEVERVLRRGFTNLWLKVTGPILHLRVEGWQCAKSLLEAARRNGFKHSGVISIAEDSRLVIEIMSSQSMSVPLVMEGARIVGDDALDMLIEKANTILVESRIGLDTFSREVEELVECFAAALEHHHHHH | soluble
MTETIKCIGCGVEIQTEDKNEVGYAPASSLEKEQVICQRCFRLKHYNEIQDVSLTDDDFLRILNGIGKSDALVVKIVDIFDFNGSWLPGLHRFVGNNKVLLVGNKADLIPKSVKHDKVKHWMRYSAKQLGLKPEDVFLISAAKGQGIAELADAIEYYRGGKDVYVVGCTNVGKSTFINRMIKEFSDETENVITTSHFPGTTLDLIDIPLDEESSLYDTPGIINHHQMAHYVGKQSLKLITPTKEIKPMVFQLNEEQTLFFSGLARFDYVSGGRRAFTCHFSNRLTIHRTKLEKADELYKNHAGDLLSPPTPEELENMPELVKYEFNIREPKTDVVFSGLGWVTVNEPGAKIVAHVPKGVSVSLRKSLI | soluble
MPYLIIEHLEKISEWLLLEYRHTAQWWGDKLIFTNVKEPEERKILAEIGSVVAESVTKLPFDKSKLIILDPFAEEELKPEDIEEDSLIVVGGILGDFEFTGKTKEFITSKIEGAKARHIGSVQFSIDGASIIAKLISEGKRLEEIEYVESPTIKLDEFSEITLHYAVPKVNGKLLLTPGLIELQKKELGYMEEDVEDEELEKLFGGSLEHHHHHH | soluble
MSLKIIVVGCGKIGYTIAKVLSEKKDIDVTVVDNNPNIFDKMVEPIDVIFISGNGANEKTLIEAGAKDADLIVSTTNADELNVLCCIMAERLGTKHSIARVRNPEYMLEFNKLWKDLGIDMVINPERQTAREISRILRYHAADDIVTFIGDRVELVSFKVSETPEYFVGKSVSQIFDNNMGILLAIVERENQALIPNGDLIFKESDIIWIMGRPSQIMKFFTLIKKGPKKGQEIMVIGGGKITHYLVELLNRHTTKANIKIIKKDRSKCESLYEALSSASLERRCLFIHGDGTNEELLIDEGIDTMDACVCLTDRDEENVFISLYAMRRGVKKVITKINYIHQNMAKSLGLWLGNIITPQYITAKTVIRYVDGLSGAVGRNIMTIHQIYSGDDGNVDAIEFQVNKKAKCIDTPIKKLKLKKGILIGCISRDFDIIIPSGETEIHIGDRVIIFSKNNDIRDLDDILENEGHHHHHH | soluble
MGHYRGTWLEIGRMPMLLTDGCVAGYSTYRQGKSADEVLVEDGCREGTPQGKLKTINGVGKIEDFASTKAKMRVRYPLLITFNYWVLYKSPDKSWFISANPSTEDVWVYARSVPSKAKLNRMMMKVRELGYDVKKLEFPLEHHHHHH | soluble
MKQPKVSVIVTCYNYATYLEGCLASILNQTYQDFELVIINDGSTDNTDEVISRFLDNDKVRYINQKNTGQAIATNNGIAAAAGELIAFLDADDLWEPTKLEKQVRLFNRDSIGVVYSRIRFMDAEGCTLDMQLEGKYYTPRSGRVTDALLFENFIPYSSTVVRKECFDKFGMFNPEYKNGLDWDLWLRISREYEFDFVDEYLLIYRIGHPGQLTSNVERSVRCADLIFDRFLEENPGIVPDSVVRKAMAYSYCRRGNQFRKIDRKRSNGFFLNALAKNPAEIGAYVGLVKNFLNMLEHHHHHH | not soluble
